We go through 6 molecules from publication PMC11955523, “Cryo-TEM structure of β-glucocerebrosidase in complex with its transporter LIMP-2” (Nature Communications, 2025).

Common to all, as to conditions: both partners purified
For experiment [1], the target named is T1, β-glucocerebrosidase (GCase), untagged wild type (human, UniProt P04062, N-glycans at N19, N59, N146, N270).
T1 construct: β-glucocerebrosidase (GCase), human, gene GBA1, wild type, expressed from the commercial plasmid pCMV3-GBA-wt; also called GCase wt; wt GCase; source: HEK 293F-sL2 cells transfected with pCMV3-GBA-wt, secreted in complex with sLIMP-2, purified (Ni-NTA, SEC); HEK 293F cells co-transfected with sLIMP-2 plasmids, in conditioned medium
The experiment in a line: cryo-EM structure; GCase/sLIMP-2/PMb1/PMb2 complex from SEC, 0.6 mg/ml, single particle analysis, 3.7 Å global resolution.

Experiment [2] addresses T2, GCase used for size exclusion chromatography with Nb1 and Nb6 (human, UniProt P04062).
T2 construct: β-glucocerebrosidase (GCase); it may be the same as m8 or another recombinant GCase
Kind of experiment: SEC; 20 µM GCase mixed with 100 µM Nb1, Nb6 or both; Superdex 200 Increase 5/150 GL, 10 mM MES, 100 mM NaCl, 1 mM DTT, 5% glycerol, pH 5.2, 12 °C.

For experiment [3], the target named is T3, recombinant GCase with C-terminal His10-tag (for cross-linking with SapC) (human, UniProt P04062 40-536).
T3 construct: β-glucocerebrosidase (GCase), with a small spacer and a TEV protease cleavage site before the C-terminal His10-tag; no TEV cleavage is described; source: FreeStyle 293 HEK cells, stably transfected (pcDNA3.1(+)), purified from cell media (HisTrap)
T3 sequence (looked up): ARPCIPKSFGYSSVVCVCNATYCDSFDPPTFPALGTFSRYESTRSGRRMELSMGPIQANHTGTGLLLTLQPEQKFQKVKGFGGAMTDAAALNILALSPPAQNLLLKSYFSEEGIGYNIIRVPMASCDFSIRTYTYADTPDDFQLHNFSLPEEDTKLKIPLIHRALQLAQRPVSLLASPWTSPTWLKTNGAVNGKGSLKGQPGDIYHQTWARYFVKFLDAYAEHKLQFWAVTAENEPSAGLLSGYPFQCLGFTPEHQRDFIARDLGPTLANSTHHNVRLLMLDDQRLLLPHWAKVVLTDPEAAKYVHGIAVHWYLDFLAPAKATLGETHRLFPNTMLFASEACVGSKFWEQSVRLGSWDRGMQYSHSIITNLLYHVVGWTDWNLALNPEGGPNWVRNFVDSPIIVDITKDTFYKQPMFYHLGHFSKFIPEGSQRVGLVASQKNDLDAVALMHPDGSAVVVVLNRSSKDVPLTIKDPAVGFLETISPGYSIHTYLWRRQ
The experiment in a line: cross-linking; GCase 16.3-20.0 µM and SapC 32.5 µM in McIlvaine buffer pH 6.0 with 10 mM NaCl (some reactions with 0.1% Triton X-100 and 0.25% sodium taurocholate); BS3(d0)/BS3(d4) or DTSSP at 1 mM, 1 h at room temperature; gel bands read by mass spectrometry.

Experiment [4] deals with T4, β-glucocerebrosidase (GCase), untagged wild type (human, UniProt P04062 40-536, N-glycans at N19, N59, N146, N270).
T4 construct: β-glucocerebrosidase (GCase), human, gene GBA1, wild type, expressed from the commercial plasmid pCMV3-GBA-wt; also called GCase wt; wt GCase; source: HEK 293F-sL2 cells transfected with pCMV3-GBA-wt, secreted in complex with sLIMP-2, purified (Ni-NTA, SEC); HEK 293F cells co-transfected with sLIMP-2 plasmids, in conditioned medium
T4 sequence (looked up): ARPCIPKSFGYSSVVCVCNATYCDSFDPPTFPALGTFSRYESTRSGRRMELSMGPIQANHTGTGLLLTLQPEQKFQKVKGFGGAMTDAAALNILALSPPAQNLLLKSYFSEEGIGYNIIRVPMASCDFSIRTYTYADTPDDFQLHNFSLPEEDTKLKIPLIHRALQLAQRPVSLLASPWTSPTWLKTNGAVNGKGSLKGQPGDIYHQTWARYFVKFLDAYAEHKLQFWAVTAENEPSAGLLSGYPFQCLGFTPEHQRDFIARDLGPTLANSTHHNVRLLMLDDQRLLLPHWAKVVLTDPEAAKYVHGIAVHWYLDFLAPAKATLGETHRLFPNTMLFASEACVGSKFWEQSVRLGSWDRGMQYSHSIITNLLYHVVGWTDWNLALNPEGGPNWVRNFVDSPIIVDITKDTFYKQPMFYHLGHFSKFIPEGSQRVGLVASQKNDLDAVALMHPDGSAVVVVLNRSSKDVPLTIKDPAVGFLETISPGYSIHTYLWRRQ
The experiment in a line: cryo-EM structure; GCase/sLIMP-2/PMb1/PMb2 complex from SEC, 0.6 mg/ml, single particle analysis, 3.7 Å global resolution.

B1: pro-macrobody PMb1 (nanobody Nb1, CA16655, fused to maltose binding protein) (VHH)
VHH: QVQLVESGGGLVQPGGSLRLSCAASGFTLDYYAIGWFRQAPGKEREGVSCISSSDGSTYYADSAKGRFTISRDNAKNTVYLQMNSLKPEDTAVYYCATDRGQCTYYSSGYYRDLRWYDYWGQGTQVTVPP
notes: nanobody Nb1 (CA16655) raised against GCase; proline-proline linker, told in words; The N-terminal pelB-10xHis-MBP was removed with 3C protease; the C-terminal MBP is part of the pro-macrobody and was detected by anti-MBP blot; By my reading of the printed primers the C-terminal MBP begins at LVIWING after the PP linker and ends at KDAQT followed by PGA; Only the nanobody domain is modelled in …
Regarding B1, in experiment [1], the binding result was “binds”.

B2: nanobody Nb1 (CA16655) against GCase (VHH)
VHH: QVQLVESGGGLVQPGGSLRLSCAASGFTLDYYAIGWFRQAPGKEREGVSCISSSDGSTYYADSAKGRFTISRDNAKNTVYLQMNSLKPEDTAVYYCATDRGQCTYYSSGYYRDLRWYDYWGQGTQVTVSS
notes: nanobody Nb1 (CA16655); they are in PDB 9ENA and, as the nanobody domain of m3, in PDB 9FJF; Encoded in a pHEN29 vector; also called Nbs1
Regarding B2, in experiment [2], the binding result is recorded as “binds”.

B3: Saposin C (SapC) (natural protein, Homo sapiens, UniProt P07602 311-390, looked up)
chain: SDVYCEVCEFLVKEVTKLIDNNKTEKEILDAFDKMCSKLPKSLSEECQEVVDTYGSSILSILLEEVSPELVCSMLHLCSG
notes: Saposin C, Homo sapiens, the cut product of prosaposin; synthetic gene, codon optimised for E. coli, in pET-28a(+); The His6-tag is followed by a TEV protease cleavage site; no cleavage is described in the purification; source: E. coli BL21(DE3) or BL21(DE3)pLysS, purified (HisTrap, Superdex 75)
Regarding B3, in experiment [3], the binding result was “binds”.

B4: soluble LIMP-2 shuttle construct (sLIMP-2), secreted LIMP-2 ectodomain, wild type (domain or fragment, human, UniProt Q14108 36-431, looked up)
chain: SIEKKIVLRNGTEAFDSWEKPPLPVYTQFYFFNVTNPEEILRGETPRVEEVGPYTYRELRNKANIQFGDNGTTISAVSNKAYVFERDQSVGDPKIDLIRTLNIPVLTVIEWSQVHFLREIIEAMLKAYQQKLFVTHTVDELLWGYKDEILSLIHVFRPDISPYFGLFYEKNGTNDGDYVFLTGEDSYLNFTKIVEWNGKTSLDWWITDKCNMINGTDGDSFHPLITKDEVLYVFPSDFCRSVYITFSDYESVQGLPAFRYKVPAEILANTSDNAGFCIPEGNCLGSGVLNVSICKNGAPIIMSFPHFYQADERFVSAIEGMHPNQEDHETFVDINPLTGIILKAAKRFQINIYVKKLDDFVETGDIRTMVFPVMYLNESVHIDKETASRLKSMINT
modifications: N-glycans at N45, N68, N105, N206, N224, N249, N304, N325, N412
notes: lysosomal integral membrane protein type-2 (LIMP-2), human, gene SCARB2, amino acids 36-431 (ectodomain); the 10xHis tag is TEV-cleavable, and no cleavage is described; also called wt sLIMP-2; lysosomal integral membrane protein type-2; source: HEK 293F cells transfected, in conditioned medium; not shown: His10, C-terminal, kept
Turning to B4, the binding result in experiment [4] is on record as “binds”.

B5: pro-macrobody PMb2 (nanobody Nb6, CA16669, fused to maltose binding protein) (VHH)
VHH: QVQLVESGGGLVQPGGSLRLSCAASGSIFSINTMGWYRQAPGKEREMVAYIITFGSTNYADSVKGRFTISGDNANNTMWLQMNSLKPEDTAVYYCYAAIRPTDSSTYTSYWGQGTQVTVPP
notes: nanobody Nb6 (CA16669) raised against GCase; proline-proline linker, told in words; The N-terminal pelB-10xHis-MBP was removed with 3C protease; Only the nanobody domain is modelled in PDB 9FJF; also called PMbs; source: E. coli MC1061, purified (Ni-NTA, 3C cleavage, second IMAC, SEC); not shown: His10, N-terminal, cleaved; MBP, N-terminal, cleaved
Take B5: the binding result in experiment [1] is given as “binds”.

B6: nanobody Nb6 (CA16669) against GCase (VHH)
VHH: QVQLVESGGGLVQPGGSLRLSCAASGSIFSINTMGWYRQAPGKEREMVAYIITFGSTNYADSVKGRFTISGDNANNTMWLQMNSLKPEDTAVYYCYAAIRPTDSSTYTSYWGQGTQVTVPP
notes: nanobody Nb6 (CA16669); they are, as the nanobody domain of m4, in PDB 9FJF; Encoded in a pHEN29 vector
For the molecule B6, the binding result in experiment [2] is “binds”.
